Reference: article PMC13038408 (Nature Chemical Biology, 2025)

T1: RSVF-multi-3 (de novo design (synthetic))
T1 construct: source: E. coli BL21 (DE3), purified (Ni-NTA, SEC)
T1 chain: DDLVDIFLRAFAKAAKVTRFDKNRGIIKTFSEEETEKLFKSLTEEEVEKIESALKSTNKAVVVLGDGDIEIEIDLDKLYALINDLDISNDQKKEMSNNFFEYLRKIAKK

T2: RSVF-multi-4 (synthetic construct (de novo design))
T2 construct: also called RSVF-multi-4 WT; source: E. coli BL21 (DE3), purified (Ni-NTA, SEC)
T2 chain: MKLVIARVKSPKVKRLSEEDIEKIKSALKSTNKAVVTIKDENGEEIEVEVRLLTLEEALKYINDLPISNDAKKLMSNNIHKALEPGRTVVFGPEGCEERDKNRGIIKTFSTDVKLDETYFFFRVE

T3: RSVFV-1 (synthetic construct (de novo scaffold …))
T3 construct: also called RSVF-V H6; source: E. coli BL21 (DE3), purified (Ni-NTA, SEC)
T3 chain: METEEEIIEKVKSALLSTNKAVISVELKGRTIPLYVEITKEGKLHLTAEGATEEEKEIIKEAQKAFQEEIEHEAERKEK

T4: RSVFV-2 (de novo design (synthetic))
T4 construct: source: E. coli BL21 (DE3), purified (Ni-NTA, SEC)
T4 chain: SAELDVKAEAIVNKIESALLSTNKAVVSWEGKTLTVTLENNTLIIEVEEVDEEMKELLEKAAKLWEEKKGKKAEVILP

T5: RSVFV-3 (de novo design (synthetic))
T5 construct: source: E. coli BL21 (DE3), purified (Ni-NTA, SEC)
T5 chain: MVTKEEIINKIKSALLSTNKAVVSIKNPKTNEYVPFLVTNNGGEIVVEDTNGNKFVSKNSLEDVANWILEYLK

T6: RSVFV-4 (de novo design (synthetic))
T6 construct: source: E. coli BL21 (DE3), purified (Ni-NTA, SEC)
T6 chain: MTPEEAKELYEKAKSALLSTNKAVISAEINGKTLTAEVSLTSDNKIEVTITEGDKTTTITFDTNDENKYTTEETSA

B1: Motavizumab IgG (antibody, V domains shown)
VH: QVTLRESGPALVKPTQTLTLTCTFSGFSLSTAGMSVGWIRQPPGKALEWLADIWWDDKKHYNPSLKDRLTISKDTSKNQVVLKVTNMDPADTATYYCARDMIFNFYFDVWGQGTTVTVSS
VL: DIQMTQSPSTLSASVGDRVTITCSASSRVGYMHWYQQKPGKAPKLLIYDTSKLASGVPSRFSGSGSGTEFTLTISSLQPDDFATYYCFQGSGYPFTFGGGTKVEIK
notes: also called site-II-specific antibody
B2: RSV90 Fab (Fab, V domains shown)
VH: EVQLVESGGGLVQPRRSLRLSCAASGFTFDDYTIHWVRQAPGKGLEWVSGITWNSGYIGYADSVKGRFTISRDNARNSLYLQMNSLRAEDTALYYCVRDAYVSGSDYYYYGLDVWGRGTLVTVSS
VL: EIVMTSSPATLSVSPGERVTLFCRASQSVISNLAWYQQKSGQAPRLLIYGASTRATGIPSRFSGSGSGTEFTLTISSLQSEDFAVYFCQQYNNWPLTFGGGTQVNVQ
notes: also called hRSV90; site-V-specific antibody

Assays:
Experiment in all cases: SPR
Settings in all cases: both partners purified
RSVF-multi-3 = target: T1, RSVF-multi-3
RSVF-multi-4 = target: T2, RSVF-multi-4
RSVFV-1 = target: T3, RSVFV-1
RSVFV-2 = target: T4, RSVFV-2
RSVFV-3 = target: T5, RSVFV-3
RSVFV-4 = target: T6, RSVFV-4

| Binder | Kd (RSVF-multi-3) [nM] | Kd (RSVF-multi-4) [nM] | Kd (RSVFV-1) [nM] | Kd (RSVFV-2) [nM] | Kd (RSVFV-3) [nM] | Kd (RSVFV-4) [nM] |
| --- | --- | --- | --- | --- | --- | --- |
| B1 | 18 | 14 | – | – | – | – |
| B2 | – | – | 54 | 108 | 94 | 241 |
